Measurements from patent publication US10512669.
“And” between values parts separate entries of the source, which are not always exact repeats. Equal entries are not always repeated.

Target: TACE expressed on resting and LPS-stimulated THP-1 cells, P78536
Experiment: cell-based or functional assay

TACE expressed on resting and LPS-stimulated THP-1 cells, P78536, sequence (P78536 215-824 limits assumed): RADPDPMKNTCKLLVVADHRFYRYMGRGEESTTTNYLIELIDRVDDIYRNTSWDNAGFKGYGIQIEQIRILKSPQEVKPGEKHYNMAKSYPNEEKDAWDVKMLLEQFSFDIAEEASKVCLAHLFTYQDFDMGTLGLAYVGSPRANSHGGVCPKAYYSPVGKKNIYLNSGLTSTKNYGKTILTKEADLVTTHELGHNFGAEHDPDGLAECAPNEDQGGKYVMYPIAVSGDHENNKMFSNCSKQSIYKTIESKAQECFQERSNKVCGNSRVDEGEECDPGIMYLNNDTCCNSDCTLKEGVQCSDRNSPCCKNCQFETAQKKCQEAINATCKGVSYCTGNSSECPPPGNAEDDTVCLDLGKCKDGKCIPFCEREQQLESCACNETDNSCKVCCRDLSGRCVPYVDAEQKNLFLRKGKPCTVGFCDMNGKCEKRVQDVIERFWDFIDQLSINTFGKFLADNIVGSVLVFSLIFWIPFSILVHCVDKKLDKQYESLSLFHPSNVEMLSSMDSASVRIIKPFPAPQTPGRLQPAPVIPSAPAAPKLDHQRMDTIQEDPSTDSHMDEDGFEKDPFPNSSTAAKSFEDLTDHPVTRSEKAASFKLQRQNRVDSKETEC

IC50, inhibition of TACE in cell-based assay on THP-1 cells: 15 µg/ml and 7.4 µM
Binder: GFCRCLCRRGVCRCICTR (modifications not checked) [Rhesus θ-defensin-1 (RTD-1)]
